Data taken from paper PMC10940162.

Key:
[1] = target: porcine brain tubulin (microtubules) (porcine)
[2] = target: porcine brain tubulin (microtubules) (porcine); experiment: in vitro reconstitution with TIRF microscopy; microtubules nucleated from and anchored at γ-TuC (GCP3–GFP) held by anti-GFP nanobody; 25 µM tubulin, 80 mM KCl, MRB80, 30 °C; 5 nM SNAP–AF647–CAMSAP3, 5 nM SNAP–AF647–CAMSAP1 or 40 nM mCherry–CAMSAP2; scored over 10 min
[3] = target: γ-tubulin-containing complexes (complete and incomplete γ-TuRC) purified using GCP3–GFP–SII (human (endogenous in HEK293T)) (UniProt Q96CW5); experiment: single-molecule colocalisation by TIRF microscopy; NPF pre-incubated with γ-TuC–GFP or GFP control ('Premix'), then held on the coverslip by biotinylated anti-GFP nanobody; without tubulin
Sequence of UniProt Q96CW5 (Q96CW5 whole entry, looked up, one chain of several): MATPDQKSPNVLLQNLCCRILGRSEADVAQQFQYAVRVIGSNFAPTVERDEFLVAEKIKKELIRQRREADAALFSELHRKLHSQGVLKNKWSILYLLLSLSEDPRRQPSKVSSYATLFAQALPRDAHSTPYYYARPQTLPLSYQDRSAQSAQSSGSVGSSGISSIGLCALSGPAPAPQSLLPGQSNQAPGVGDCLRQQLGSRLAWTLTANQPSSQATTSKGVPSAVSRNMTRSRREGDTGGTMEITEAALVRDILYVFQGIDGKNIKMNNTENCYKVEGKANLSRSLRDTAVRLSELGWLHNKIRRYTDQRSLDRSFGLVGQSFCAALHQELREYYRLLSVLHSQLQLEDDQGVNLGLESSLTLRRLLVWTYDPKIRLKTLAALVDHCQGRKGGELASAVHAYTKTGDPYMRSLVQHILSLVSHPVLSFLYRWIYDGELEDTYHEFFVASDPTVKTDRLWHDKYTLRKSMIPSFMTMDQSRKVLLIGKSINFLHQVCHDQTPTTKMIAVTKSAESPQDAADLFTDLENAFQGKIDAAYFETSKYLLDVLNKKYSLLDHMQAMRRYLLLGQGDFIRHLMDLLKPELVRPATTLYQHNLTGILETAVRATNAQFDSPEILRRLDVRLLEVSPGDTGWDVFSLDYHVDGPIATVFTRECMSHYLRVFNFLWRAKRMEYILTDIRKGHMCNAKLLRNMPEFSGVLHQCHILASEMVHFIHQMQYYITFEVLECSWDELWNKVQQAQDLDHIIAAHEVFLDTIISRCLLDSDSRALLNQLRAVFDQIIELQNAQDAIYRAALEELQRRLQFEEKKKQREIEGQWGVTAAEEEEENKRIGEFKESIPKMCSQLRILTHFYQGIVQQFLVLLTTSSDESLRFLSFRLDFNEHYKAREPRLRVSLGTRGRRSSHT

[4] = target: γ-tubulin-containing complexes (complete and incomplete γ-TuRC) purified using GCP3–GFP–SII (human (endogenous in HEK293T)) (UniProt Q96CW5); experiment: single-molecule colocalisation by TIRF microscopy; γ-TuC–GFP held on the coverslip by biotinylated anti-GFP nanobody; with free tubulin (17.5 µM, 50 mM KCl, 30 °C); the sentence does not tell whether the NPF was premixed
[5] = target: γ-tubulin-containing complexes (complete and incomplete γ-TuRC) purified using GCP3–GFP–SII (human (endogenous in HEK293T)) (UniProt Q96CW5)
[6] = target: γ-tubulin-containing complexes (complete and incomplete γ-TuRC) purified using GCP3–GFP–SII (human (endogenous in HEK293T)) (UniProt Q96CW5); experiment: single-molecule colocalisation by TIRF microscopy; NPF pre-incubated with γ-TuC–GFP in solution ('Premix'), then held on the coverslip by biotinylated anti-GFP nanobody; with 17.5 µM tubulin, 50 mM KCl, MRB80, 30 °C
[7] = target: porcine brain tubulin (microtubules) (porcine); remark: listed apart in the source
[8] = target: porcine brain tubulin (microtubules) (porcine); experiment: in vitro reconstitution with TIRF microscopy; as a7 with 5 nM SNAP–AF647–CAMSAP3 and 200 nM chTOG–mCherry (not premixed)
[9] = target: porcine brain tubulin (microtubules) (porcine); experiment: in vitro reconstitution with TIRF microscopy; as a7 with 5 nM SNAP–AF647–CAMSAP3 and 30 nM mCherry–CLASP2 (pre-incubated with γ-TuC)
[10] = target: porcine brain tubulin (microtubules) (porcine); experiment: in vitro reconstitution with TIRF microscopy; as a7 with 5 nM SNAP–AF647–CAMSAP3 and 30 nM mCherry–CDK5RAP2 (pre-incubated with γ-TuC)
[11] = target: porcine brain tubulin (microtubules) (porcine); experiment: in vitro reconstitution with TIRF microscopy; microtubules nucleated from and anchored at γ-TuC (GCP3–GFP) held by anti-GFP nanobody; 25 µM tubulin, 80 mM KCl, MRB80, 30 °C; 5 nM SNAP–AF647–CAMSAP3, 5 nM SNAP–AF647–CAMSAP1 or 40 nM mCherry–CAMSAP2; scored over 10 min; remark: listed apart in the source
[12] = target: γ-tubulin-containing complexes (complete and incomplete γ-TuRC) purified using GCP3–GFP–SII (human (endogenous in HEK293T)) (UniProt Q96CW5); experiment: single-molecule colocalisation by TIRF microscopy; NPF pre-incubated with γ-TuC–GFP or GFP control ('Premix'), then held on the coverslip by biotinylated anti-GFP nanobody; without tubulin; remark: listed apart in the source
[13] = target: γ-tubulin-containing complexes (complete and incomplete γ-TuRC) purified using GCP3–GFP–SII (human (endogenous in HEK293T)) (UniProt Q96CW5); experiment: single-molecule colocalisation by TIRF microscopy; γ-TuC–GFP held on the coverslip by biotinylated anti-GFP nanobody; with free tubulin (17.5 µM, 50 mM KCl, 30 °C); the sentence does not tell whether the NPF was premixed; remark: listed apart in the source

For “SNAP–AF647–CAMSAP1 (from UniProt Q5T5Y3 1-1602) (natural protein)”, the γ-TuC displacement frequency (microtubules released among γ-TuC-anchored minus ends colocalizing with the CAMSAP) [1] was 5% and the percent of γ-TuC-nucleated microtubules with CAMSAP at the minus end [2] was 25%.

Molecule “chTOG–mCherry (from UniProt Q14008 1-2032) (natural protein)” has a percent of chTOG-positive puncta colocalizing with γ-TuC [3] of 28% and a percent of chTOG-positive puncta colocalizing with γ-TuC [4] of 6%.

In the case of “mCherry–CDK5RAP2 (from UniProt Q96SN8 1-1893) (natural protein)”, the microtubule nucleation efficiency of γ-TuC (percent of γ-TuCs nucleating within 10 min), mCherry–CDK5RAP2 pre-incubated with γ-TuCs [5] is reported as 35%, the percent of CDK5RAP2-positive puncta colocalizing with γ-TuCs [3] is reported as 41% and the percent of γ-TuCs colocalizing with CDK5RAP2 [3] is reported as 30%. The percent of γ-TuCs colocalizing with CDK5RAP2 [6] was 38% and the percent of CDK5RAP2-positive puncta colocalizing with γ-TuCs [4] was 13%.

B1: SNAP–AF647–CAMSAP3 (natural protein)
chain: MVEAAPAGSGPLRRTFLVPEIKSLDQYDFSRAKAAASLAWVLRAAFGGAEHVPPELWEPFYTDQYAQEHVKPPVTRLLLSAELYCRAWRQALPQLEPSPSPSALLALLARRGTVPSLPEHPVREADLKHQPILMGAHLAVIDALMVAFSFEWTKTLPGPLALSSLEHKLLFWVDTTVRRLQEKTEQEAAQRASPAAPLDGASPAQPSIRYRKDRAIARRAPCFPNVTTLQDLASGAALAATIHCYCPQLLRLEEVCLKDPMSVADSLYNLQLVQDFCASHLPRGCPLSLEDLLYVPPPLKVNLVVLLAEMYMCFEVLKPDFVQAKDLPDGHAVSPRNTETVPSQNNSGSSSPVFNFRHPLLSPGGPQSPLRGSTGSLKSSPSMSHMEALGKAWNRQLSRPLSQAVSFSTPFGLDSDVDVVMGDPVLLRSVSSDSLGPPRPVSTSSRNSAQPAPESGDLPTIEEALQIIHSAEPRLLPDGAADGSFYLHSPEGLSKPPLSPYPPEGASKPLSDRLNKAPIYISHPENPSKSSPCSTGEILKPPPPSEGSPKAVASSPAANNSEVKMTSFAERKKQLVKAEAESGLGSPTSTPVAPEALSSEMSELGARLEEKRRAIEAQKRRIEAIFAKHRQRLGKSAFLQVQPREAAGEAEEEAELGSVPGGERPAGEGQGEPSLRHKSVTFSPDLGPVPPEGLGDYNRAVSKLSAALSSLQRDMQRLTDQQQRLLAPPEAPGPAPPPAAWVIPGPATGPKAASPSPARRAPAARRSPGPGPSPTPRSPKHARPAELKLAPLTRVLTPPHDVDSLPHLRKFSPSQVPVQTRSSILLSEGTPPEEPTTKPALIEIPLASLGEPAADEEGDGSPPGAEDSLEEEASSEGEPRSGLGFFYKDEDKPEDEMAQKRASLLERQQRRVEEARRRKQWQEAEKEQKREEAARLAQEAPGLAFTTPVVASAAPVATLAPTTRAMAPAEEEVGPRRGDFTRLEYERRAQLKLMDDLDKVLRPRASGTGGPGRGGRRATRPRSGCCDDSALARSPARGLLGSRLSKVYSQSTLSLSTVANEAPNNLGVKRPTSRAPSPSGLMSPSRLPGSRERDWENGSNASSPASVPEYTGPRLYKEPSAKSNKFIIHNALSHCCLAGKVNEPQKNRILEEIEKSKANHFLILFRDSSCQFRALYTLSGETEELSRLAGYGPRTVTPAMVEGIYKYNSDRKRFTQIPAKTMSMSVDAFTIQGHLWQSKKPTTPKKGGGTPK
modifications: Alexa Fluor 647 dye on the SNAP tag
With B1 the percentage of microtubules released from γ-TuCs with SNAP–AF647–CAMSAP3 [7] was 15%, the γ-TuC displacement frequency (microtubules released among γ-TuC-anchored minus ends colocalizing with the CAMSAP) [1] was 40% and the percent of γ-TuC-nucleated microtubules with CAMSAP at the minus end [8] was 25%. For the same molecule, the percent of γ-TuC-nucleated microtubules with CAMSAP at the minus end [9] was 35%, the percent of γ-TuC-nucleated microtubules with CAMSAP at the minus end [10] was 3% and the percent of γ-TuC-nucleated microtubules with CAMSAP at the minus end [11] was 30%.

B2: mCherry–CLASP2 (natural protein)
chain: MAMGDDKSFDDEESVDGNRPSSAASAFKVPAPKTSGNPANSARKPGSAGGPKVGGASKEGGAGAVDEDDFIKAFTDVPSIQIYSSRELEETLNKIREILSDDKHDWDQRANALKKIRSLLVAGAAQYDCFFQHLRLLDGALKLSAKDLRSQVVREACITVAHLSTVLGNKFDHGAEAIVPTLFNLVPNSAKVMATSGCAAIRFIIRHTHVPRLIPLITSNCTSKSVPVRRRSFEFLDLLLQEWQTHSLERHAAVLVETIKKGIHDADAEARVEARKTYMGLRNHFPGEAETLYNSLEPSYQKSLQTYLKSSGSVASLPQSDRSSSSSQESLNRPFSSKWSTANPSTVAGRVSAGSSKASSLPGSLQRSRSDIDVNAAAGAKAHHAAGQSVRSGRLGAGALNAGSYASLEDTSDKLDGTASEDGRVRAKLSAPLAGMGNAKADSRGRSRTKMVSQSQPGSRSGSPGRVLTTTALSTVSSGVQRVLVNSASAQKRSKIPRSQGCSREASPSRLSVARSSRIPRPSVSQGCSREASRESSRDTSPVRSFQPLASRHHSRSTGALYAPEVYGASGPGYGISQSSRLSSSVSAMRVLNTGSDVEEAVADALKKPARRRYESYGMHSDDDANSDASSACSERSYSSRNGSIPTYMRQTEDVAEVLNRCASSNWSERKEGLLGLQNLLKNQRTLSRVELKRLCEIFTRMFADPHGKRVFSMFLETLVDFIQVHKDDLQDWLFVLLTQLLKKMGADLLGSVQAKVQKALDVTRESFPNDLQFNILMRFTVDQTQTPSLKVKVAILKYIETLAKQMDPGDFINSSETRLAVSRVITWTTEPKSSDVRKAAQSVLISLFELNTPEFTMLLGALPKTFQDGATKLLHNHLRNTGNGTQSSMGSPLTRPTPRSPANWSSPLTSPTNTSQNTLSPSAFDYDTENMNSEDIYSSLRGVTEAIQNFSFRSQEDMNEPLKRDSKKDDGDSMCGGPGMSDPRAGGDATDSSQTALDNKASLLHSMPTHSSPRSRDYNPYNYSDSISPFNKSALKEAMFDDDADQFPDDLSLDHSDLVAELLKELSNHNERVEERKIALYELMKLTQEESFSVWDEHFKTILLLLLETLGDKEPTIRALALKVLREILRHQPARFKNYAELTVMKTLEAHKDPHKEVVRSAEEAASVLATSISPEQCIKVLCPIIQTADYPINLAAIKMQTKVIERVSKETLNLLLPEIMPGLIQGYDNSESSVRKACVFCLVAVHAVIGDELKPHLSQLTGSKMKLLNLYIKRAQTGSGGADPTTDVSGQS
Molecule B2 has a percent colocalization with γ-TuC [12] of 72% and a percent colocalization with γ-TuC [13] of 72%.

B3: mCherry–CAMSAP2 (natural protein)
chain: MGDAADPREMRKTFIVPAIKPFDHYDFSRAKIACNLAWLVAKAFGTENVPEELQEPFYTDQYDQEHIKPPVVNLLLSAELYCRAGSLILKSDAAKPLLGHDAVIQALAQKGLYVTDQEKLVTERDLHKKPIQMSAHLAMIDTLMMAYTVEMVSIEKVIACAQQYSAFFQATDLPYDIEDAVMYWINKVNEHLKDIMEQEQKLKEHHTVEAPGGQKSPSKWFWKLVPARYRKEQTLLKQLPCIPLVENLLKDGTDGCALAALIHFYCPDVVRLEDICLKETMSLADSLYNLQLIQEFCQEYLNQCCHFTLEDMLYAASSIKSNYLVFMAELFWWFEVVKPSFVQPRVVRPQGAEPVKDMPSIPVLNAAKRNVLDSSSDFPSSGEGATFTQSHHHLPSRYSRPQAHSSASGGIRRSSSMSYVDGFIGTWPKEKRSSVHGVSFDISFDKEDSVQRSTPNRGITRSISNEGLTLNNSHVSKHIRKNLSFKPINGEEEAESIEEELNIDSHSDLKSCVPLNTNELNSNENIHYKLPNGALQNRILLDEFGNQIETPSIEEALQIIHDTEKSPHTPQPDQIANGFFLHSQEMSILNSNIKLNQSSPDNVTDTKGALSPITDNTEVDTGIHVPSEDIPETMDEDSSLRDYTVSLDSDMDDASKFLQDYDIRTGNTREALSPCPSTVSTKSQPGSSASSSSGVKMTSFAEQKFRKLNHTDGKSSGSSSQKTTPEGSELNIPHVVAWAQIPEETGLPQGRDTTQLLASEMVHLRMKLEEKRRAIEAQKKKMEAAFTKQRQKMGRTAFLTVVKKKGDGISPLREEAAGAEDEKVYTDRAKEKESQKTDGQRSKSLADIKESMENPQAKWLKSPTTPIDPEKQWNLASPSEETLNEGEILEYTKSIEKLNSSLHFLQQEMQRLSLQQEMLMQMREQQSWVISPPQPSPQKQIRDFKPSKQAGLSSAIAPFSSDSPRPTHPSPQSSNRKSASFSVKSQRTPRPNELKITPLNRTLTPPRSVDSLPRLRRFSPSQVPIQTRSFVCFGDDGEPQLKESKPKEEVKKEELESKGTLEQRGHNPEEKEIKPFESTVSEVLSLPVTETVCLTPNEDQLNQPTEPPPKPVFPPTAPKNVNLIEVSLSDLKPPEKADVPVEKYDGESDKEQFDDDQKVCCGFFFKDDQKAENDMAMKRAALLEKRLRREKETQLRKQQLEAEMEHKKEETRRKTEEERQKKEDERARREFIRQEYMRRKQLKLMEDMDTVIKPRPQVVKQKKQRPKSIHRDHIESPKTPIKGPPVSSLSLASLNTGDNESVHSGKRTPRSESVEGFLSPSRCGSRNGEKDWENASTTSSVASGTEYTGPKLYKEPSAKSNKHIIQNALAHCCLAGKVNEGQKKKILEEMEKSDANNFLILFRDSGCQFRSLYTYCPETEEINKLTGIGPKSITKKMIEGLYKYNSDRKQFSHIPAKTLSASVDAITIHSHLWQTKRPVTPKKLLPTKA
For B3, the γ-TuC displacement frequency (microtubules released among γ-TuC-anchored minus ends colocalizing with the CAMSAP) [1] was 90% and the percent of γ-TuC-nucleated microtubules with CAMSAP at the minus end [11] was 15%.
